According to US20120053225A1 (H LEE MOFFITT CANCER CENTER AND RESEARCH INSTITUTE, published 2012):

Columns and labels:
[1] = target: T1, endogenous Ack1 of mouse embryo fibroblasts (mouse, UniProt O54967 1-1055, limits assumed); experiment: co-IP with Ack1 antibodies from EGF-treated MEF lysates, immunoblot with pan-AKT antibodies
T1 construct: Endogenous protein immunoprecipitated from MEF lysates with anti-Ack1 antibodies; also called TNK2
Procedure: Membrane and cytosolic fractionation was performed using membrane fractionation kit (BioVision, Inc, CA). The nuclear/cytoplasmic fractionation was performed using protocol from Abcam (Abcam, Inc., Cambridge, Mass.). For immunoprecipitations, cells were lysed in receptor lysis buffer (RLB) containing 25 mmol/L Tris (pH 7.5), 500 mmol/L NaCl, 1% Triton X-100, 10% glycerol, phosphatase inhibitors (10 mmol/L NaF, 1 mmol/L Na₂VO₄), and protease inhibitor mix (Hoffmann-La Roche Inc., Switzerland). […] The kinase assay was performed using kit from Calbiochem.

[2] = target: T2, HA-tagged AKT Y176F mutant (UniProt P31749 1-480); experiment: pull-down of purified proteins on GST-Ack1 glutathione beads, immunoblot
T2 construct: also called Y176F mutant of AKT; HA-Y176F; not shown: HA tag

T1 sequence (O54967 whole entry): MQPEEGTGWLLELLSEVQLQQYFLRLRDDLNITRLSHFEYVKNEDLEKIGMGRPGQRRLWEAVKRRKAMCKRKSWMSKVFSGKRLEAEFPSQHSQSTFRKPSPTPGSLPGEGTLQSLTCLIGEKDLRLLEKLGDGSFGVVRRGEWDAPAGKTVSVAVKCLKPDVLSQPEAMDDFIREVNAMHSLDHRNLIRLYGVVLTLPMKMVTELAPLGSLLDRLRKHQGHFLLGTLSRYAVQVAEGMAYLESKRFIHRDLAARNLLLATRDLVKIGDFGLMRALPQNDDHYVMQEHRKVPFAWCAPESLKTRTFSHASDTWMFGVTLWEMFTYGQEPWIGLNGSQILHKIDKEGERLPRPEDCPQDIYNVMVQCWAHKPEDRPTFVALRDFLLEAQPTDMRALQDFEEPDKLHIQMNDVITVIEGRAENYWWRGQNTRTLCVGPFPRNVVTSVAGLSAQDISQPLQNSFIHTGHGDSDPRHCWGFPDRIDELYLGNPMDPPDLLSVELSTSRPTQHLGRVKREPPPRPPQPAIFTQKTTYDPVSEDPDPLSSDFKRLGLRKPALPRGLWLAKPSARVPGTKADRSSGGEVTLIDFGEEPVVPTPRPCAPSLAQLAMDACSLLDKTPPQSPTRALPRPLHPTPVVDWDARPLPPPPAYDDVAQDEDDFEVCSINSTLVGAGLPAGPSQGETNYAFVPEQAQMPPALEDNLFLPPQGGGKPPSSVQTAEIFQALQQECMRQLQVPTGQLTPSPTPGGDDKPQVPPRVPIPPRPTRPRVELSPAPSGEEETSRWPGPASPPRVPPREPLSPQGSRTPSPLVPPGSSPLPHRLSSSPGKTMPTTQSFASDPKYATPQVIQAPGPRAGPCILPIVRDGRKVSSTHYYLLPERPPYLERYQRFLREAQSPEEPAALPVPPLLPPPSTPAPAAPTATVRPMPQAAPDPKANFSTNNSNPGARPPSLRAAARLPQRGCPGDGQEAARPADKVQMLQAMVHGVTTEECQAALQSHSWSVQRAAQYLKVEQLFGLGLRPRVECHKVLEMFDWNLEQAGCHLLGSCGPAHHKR

binding result [1]	binding result [2]	Binder
binds	–	endogenous Akt1 of mouse embryo fibroblasts (enzyme, UniProt P31750 1-480, looked up, Endogenous protein in MEF lysates) MNDVAIVKEGWLHKRGEYIKTWRPRYFLLKNDGTFIGYKERPQDVDQRESPLNNFSVAQCQLMKTERPRPNTFIIRCLQWTTVIERTFHVETPEEREEWATAIQTVADGLKRQEEETMDFRSGSPSDNSGAEEMEVSLAKPKHRVTMNEFEYLKLLGKGTFGKVILVKEKATGRYYAMKILKKEVIVAKDEVAHTLTENRVLQNSRHPFLTALKYSFQTHDRLCFVMEYANGGELFFHLSRERVFSEDRARFYGAEIVSALDYLHSEKNVVYRDLKLENLMLDKDGHIKITDFGLCKEGIKDGATMKTFCGTPEYLAPEVLEDNDYGRAVDWWGLGVVMYEMMCGRLPFYNQDHEKLFELILMEEIRFPRTLGPEAKSLLSGLLKKDPTQRLGGGSEDAKEIMQHRFFANIVWQDVYEKKLSPPFKPQVTSETDTRYFDEEFTAQMITITPPDQDDSMECVDSERRPHFPQFSYSASGTA
–	no binding	GST-Ack1 (kinase, SH3 and CRIB domain), expressed in E. coli (enzyme, UniProt Q07912 110-476, looked up, domain: kinase, SH3 and CRIB domain; also called GST-tagged Ack1; not shown: GST tag) GEGPLQSLTCLIGEKDLRLLEKLGDGSFGVVRRGEWDAPSGKTVSVAVKCLKPDVLSQPEAMDDFIREVNAMHSLDHRNLIRLYGVVLTPPMKMVTELAPLGSLLDRLRKHQGHFLLGTLSRYAVQVAEGMGYLESKRFIHRDLAARNLLLATRDLVKIGDFGLMRALPQNDDHYVMQEHRKVPFAWCAPESLKTRTFSHASDTWMFGVTLWEMFTYGQEPWIGLNGSQILHKIDKEGERLPRPEDCPQDIYNVMVQCWAHKPEDRPTFVALRDFLLEAQPTDMRALQDFEEPDKLHIQMNDVITVIEGRAENYWWRGQNTRTLCVGPFPRNVVTSVAGLSAQDISQPLQNSFIHTGHGDSDPRHCW
